Results on two molecules are retold here after publication doi:10.1101/2021.04.27.441718.

Usually Kd stands for the free concentration of one partner at which half of the binding sites on the other are occupied at equilibrium, for simple one-to-one binding.

For data set [1], the target named is T1, RbpB (Bacteroides thetaiotaomicron VPI-5482, UniProt Q8A6J4 1-100).
T1 sequence: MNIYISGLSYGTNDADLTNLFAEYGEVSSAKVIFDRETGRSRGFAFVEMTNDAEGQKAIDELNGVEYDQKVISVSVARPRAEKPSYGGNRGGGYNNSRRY
In words: EMSA. In general terms: In EMSA bound probe runs differently from free probe, usually more slowly.

The target of data set [2] is T1, RbpB. In words: EMSA. The source holds these as a separate data set.

As for UCCUGUGCUCCUGUGCUCCUGUGC (ssRNA) [Motif 9 x3], in the data set with RbpB [1], the binding result is on record as “no binding”.
As for GUAGGAUAGUAGGAUAGUAGGAUA (ssRNA) [Motif 1 x3], the affinity with RbpB [2], expressed as Kd, was 5.1 µM.
